# Results published in patent publication US20240141061A1, “NOVEL ANTIBODY AGAINST CD55 AND USE THEREOF” (SG MEDICAL INC, priority 2021, published 2024).
# Changes are numbered by the printed parent chain. Numbers in names are those of the source.
# T1: recombinant human CD55 (Homo sapiens, UniProt P08174)
# T1 construct: purchased R&D Systems 2009-CD/CF
# T1 sequence (P08174 35-353): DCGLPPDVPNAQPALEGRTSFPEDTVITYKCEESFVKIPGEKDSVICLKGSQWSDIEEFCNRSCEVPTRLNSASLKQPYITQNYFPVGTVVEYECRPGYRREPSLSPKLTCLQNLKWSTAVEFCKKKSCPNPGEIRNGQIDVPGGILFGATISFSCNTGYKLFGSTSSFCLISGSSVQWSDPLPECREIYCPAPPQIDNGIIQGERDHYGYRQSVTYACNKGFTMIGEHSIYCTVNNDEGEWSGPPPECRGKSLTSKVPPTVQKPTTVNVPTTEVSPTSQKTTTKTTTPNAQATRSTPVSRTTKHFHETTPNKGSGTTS
# T2: recombinant human CD55 (R&D Systems 2009-CD/CF) (human, UniProt P08174 35-353)
# T2 construct: Bought recombinant protein coated on ELISA plates; also called decay-accelerating factor; DAF
# T2 sequence (looked up): T1 sequence (P08174 35-353)
# B1: 10H(L): EP-10H backbone with H100A site replaced with L, VH SEQ ID NO 27, EP-10H light chain (antibody, V domains shown)
# VH: EVQLAESGGGLVQPGGSLRLSCAASGFTFSDRGMAWVRQAPGKGLEWVSGISSSGRYTYYAPAVKGRATISRDNSKNTLYLQMNSLRAEDTAVYYCAKNALAGGWHAAYIDAWGQGTTVTVSS
# VL: SYELTQPPSVSVSPGQTASITCSGGGGSYGWYQQKPGQSPVTVIYWNDKRPSGIPERFSGSKSGNTATLTISGTQAMDEADYYCGGWDSSTYAIFGGGTKLTVL
# B2: 10H(F): EP-10H backbone with H100A site replaced with F, VH SEQ ID NO 28, EP-10H light chain (antibody, V domains shown)
# VH: B1 VH with L101F
# VL: B1 VL
# B3: 3R-2-1H: anti-CD55 antibody screened from G4-1H random mutation library, VL SEQ ID NO 4, VH SEQ ID NO 22 (antibody, V domains shown)
# VH: B1 VH with A5V, A23V, S25R, A68T, L101V
# VL: B1 VL
# modifications: 3R-2-1H_VH; G4-1H_VL
# B4: G4-1H: humanized 4-1H anti-CD55 antibody, VL SEQ ID NO 4, VH SEQ ID NO 5 (antibody, V domains shown)
# VH: B1 VH with A5V, L101G
# VL: B1 VL
# modifications: G4-1H_VH; G4-1H_VL
# B5: EP-9B: anti-CD55 antibody screened from G4-1H random mutation library, VL SEQ ID NO 4, VH SEQ ID NO 21 (antibody, V domains shown)
# VH: B1 VH with A5V, A35V, A40S, S85N, L101V
# VL: B1 VL
# modifications: EP-9B_VH; G4-1H_VL
# B6: EP-1F: anti-CD55 antibody screened from G4-1H random mutation library, VL SEQ ID NO 4, VH SEQ ID NO 20 (antibody, V domains shown)
# VH: B1 VH with L101V
# VL: B1 VL
# modifications: EP-1F_VH; G4-1H_VL
# B7: 10H(M): EP-10H backbone with H100A site replaced with M, VH SEQ ID NO 29, EP-10H light chain (antibody, V domains shown)
# VH: B1 VH with L101M
# VL: B1 VL
# B8: EP-1E: anti-CD55 antibody screened from G4-1H random mutation library, VL SEQ ID NO 18, VH SEQ ID NO 19 (antibody, V domains shown)
# VH: B1 VH with A5V, L101V
# VL: B1 VL with Y32F, D48N
# modifications: EP-1E_VH; EP-1E_VL
# B9: 10H(A) (antibody, V domains shown)
# VH: B1 VH with A5V, L101A
# VL: B1 VL
# B10: 10H(I) (antibody, V domains shown)
# VH: B1 VH with A5V, L101I
# VL: B1 VL
# B11: 3R-2-1H (antibody, V domains shown)
# VH: B1 VH with A5V, A23V, S25R, A68T, L101V
# VL: B1 VL
# notes: Tested as full-length IgG
# B12: EP-1F (antibody, V domains shown)
# VH: B1 VH with L101V
# VL: B1 VL
# notes: Tested as full-length IgG
# B13: EP-1E (antibody, V domains shown)
# VH: B1 VH with A5V, L101V
# VL: B1 VL with Y32F, D48N
# notes: Tested as full-length IgG
# B14: EP-9B (antibody, V domains shown)
# VH: B1 VH with A5V, A35V, A40S, S85N, L101V
# VL: B1 VL
# notes: Tested as full-length IgG
# B15: EP-10H scFv clone displayed on phage (scFv, V domains shown)
# VH: B1 VH with A5V, L101V
# VL: B1 VL
# notes: In the screening ELISA it stood as scFv on phage (pComb3x)
# B16: EP-1F scFv clone displayed on phage (scFv, V domains shown)
# VH: B1 VH with L101V
# VL: B1 VL
# notes: as for B15
# B17: EP-9B scFv clone displayed on phage (scFv, V domains shown)
# VH: B1 VH with A5V, A35V, A40S, S85N, L101V
# VL: B1 VL
# notes: as for B15
# B18: EP-1E scFv clone displayed on phage (scFv, V domains shown)
# VH: B1 VH with A5V, L101V
# VL: B1 VL with Y32F, D48N
# notes: as for B15
# B19: 3R-2-1H scFv clone displayed on phage (scFv, V domains shown)
# VH: B1 VH with A5V, A23V, S25R, A68T, L101V
# VL: B1 VL
# notes: as for B15
# Target: T1, recombinant human CD55
# Experiment: Indirect ELISA, affinity for CD55
# Type: binding
# Conditions: full-length antibody 0.0001-10 nM on CD55 coated at 1 μg/mL
# Protocol: The binding ability of the G4-1H monoclonal antibody prepared in Example 2 for CD55 was investigated by indirect ELISA. For the indirect ELISA, recombinant human CD55 (R&D Systems, USA) diluted to 1 μg/mL in 50 μL of PBS was added to a 96-well immunoplate (Corning, USA) and then adsorbed by keeping at 4° C. overnight. After incubation for 1 hour at room temperature in a buffer containing 3% bovine serum albumin (Millipore, USA), followed by washing with a buffer containing 0.5% Tween 20 (Amresco, USA) three times, 50 μL of the serially diluted antibody (0.0001, 0.0003, 0.001, 0.003, 0.01, 0.03, 0.1, 0.3, 1, 3 and 10 nM) was treated per well. After incubation at room temperature for 2 hours for antibody-antigen binding, the antibody-antigen complex was washed three times with a buffer containing 0.5% Tween 20 (Amresco, USA). After treating with 50 μL of anti-human immunoglobulin Fc-HRP antibody (Jackson Immunoresearch, USA) diluted to 1:3,000 per well, followed by incubation at room temperature for 1 hour and washing three times with a buffer containing 0.5% Tween 20 (Amresco, USA), color development was conducted for 10 minutes by adding 50 μL of 3,3′,5,5′-tetramethylbenzidine (TMB) (ThermoFisher Scientific, USA).
# The affinity of the antibodies screened in Example 6 for CD55 was investigated by indirect ELISA. The indirect ELISA was conducted in the same manner as in Example 3.
# The affinity of the antibodies prepared in Example 8 for CD55 was investigated by indirect ELISA. The indirect ELISA was conducted in the same manner as in Example 3. […]
row,Molecule,"affinity for CD55 (indirect ELISA, absorbance at 450 nm)"
1,B1,lower affinity than EP-10H
2,B2,lower affinity than EP-10H
3,B3,comparable affinity
4,B4,lower affinity for CD55 than 4-1H
5,B5,affinity higher than that of 4-1H but lower than those of other antibodies
6,B6,comparable affinity
7,B7,lower affinity than EP-10H
8,B8,comparable affinity
9,B9,lower affinity than EP-10H
10,B10,lower affinity than EP-10H

# Target: T2, recombinant human CD55 (R&D Systems …)
# Experiment: indirect ELISA, recombinant human CD55 coated
# Conditions: not given
row,Molecule,binding result
1,B11,binds
2,B12,binds
3,B9,binds
4,B13,binds
5,B10,binds
6,B14,binds

# Target: T2, recombinant human CD55 (R&D Systems …)
# Experiment: phage ELISA, recombinant human CD55 coated, anti-M13-HRP; 4-1H phage clone as control
# Conditions: not given
# Protocol: 192 clones screened from the products of the third and fourth biopanning were incubated overnight at 37° C. on a 96-deep well plate after adding 100 μg/mL carbenicillin, 70 μg/mL kanamycin and VCSM13 helper phage to induce the proliferation of phages wherein the antibody was expressed. After centrifuging the culture, the supernatant containing the phage was incubated at 37° C. for 2 hours on an ELISA plate coated with recombinant human CD55 (R&D Systems 2009-CD/CF, USA). Then, the antibody binding to CD55 was identified by ELISA using HRP-conjugated anti-M13 antibody (Merck, USA) as a secondary antibody.
row,Molecule,binding result
1,B15,binds
2,B16,binds
3,B17,binds
4,B18,binds
5,B19,binds
